The target in experiment [1] is N15 Cro (Escherichia phage N15) (UniProt P03040). Particulars: cited from earlier work.
The target of experiment [2] is λ Cro (Escherichia phage lambda) (UniProt P03040). Particulars: cited from earlier work.
The target of experiment [3] is bacteriophage N15 Cro (bacteriophage N15). In words: native MS.
In experiment [4] the target is T1, bacteriophage λ Cro (bacteriophage λ), P03040.
T1 chain: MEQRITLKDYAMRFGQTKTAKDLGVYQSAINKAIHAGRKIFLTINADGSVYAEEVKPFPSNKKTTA
Kind of experiment: native MS. The following applies: remark: other sources report otherwise.

For orientation: Kd means the constant that tells how readily two partners part at equilibrium. Regarding N15 Cro (from UniProt P03040), the Kd in experiment [1] was 5 µM.
As for λ Cro (from UniProt P03040), the Kd in experiment [2] was 3 µM.
Usually stoichiometry N stands for a count of units in the complex or per binding partner. In turn, bacteriophage N15 Cro (natural protein) yielded a stoichiometry N in experiment [3] of 2.

B1: bacteriophage λ Cro, P03040 1-66 (natural protein)
chain: T1 chain
In experiment [4], B1 came in with a stoichiometry N of 2.

Source of the values: PMC3094495.
